Laboratory results as given in a protein production outcome set (Wang et al. 2014).

Experiment: label from the status in PepcDB records

Row | Sequence | protein production
1 | MTKYQETAKAILAAVGGEKNIQHVTHCVTRLRLVLDNDEIVNDQVIKTIPNVIGVMRKNDQYQIILGNDVNNYYNAFLALGHFENTTREFSSQKKSSILEKLIETIAGVITPLIPALLGGGMLKVIGILLPMLGIASSSSQTVAFINFFGDAAYYFMPIMIAYSAASRFKVTPVLAATVGGILLHPAFVTMVAEGKPLSLFGAPVTLASYGSSVIPILIMVFLMQYIERWINKIVPSVMKSFLQPTLIILISGFLALVVVGPLGVIIGKGLSSAMLSIYHVAPWLALSILGAIMPLVVMTGMHWAFAPIFLAASVATPDVLILPAMLASNLAQGAASLAVAVKAKQKQTRQVAFAAGLSALLAGITEPALYGVTLKFKKPLYAAMISGGLVGAYIGLVNIASYTFVVPSIIGLPQYINPQGGNNFSNAVIAAIATIILTFIITWFLGIDEGENEKSSINAQEHTHIRSGLSKKETLYSPMVGNVLPLSKVPDETFSSKLLGEGLAITPSVGEVYAPFDGEIISLFPTKHAIALKDDKGVEVLIHIGIDTVELNGEGFEQLVKVGDFVKRGQLLLRMDIDFISSKGYSLISPVVVTNSIDQLEIIVKDAETMVTNEDDLLVIL | failed
2 | MSVWLLQMKTNAIITDITKSIVKMDRILVYRHTNPDPDAIGAQFGLVALLKAAYPEKLVVAMAPVPGHLAWIDTTDEQLVTPQATDLVIAVDCANHERLAGELPTGAFVIKIDHHPNHDPYGQLNWVDETYSSCSEMIYELAQAGCFTVTAAVATKLYAGIIGDTVRFSTPETSTRTLKIASALAATDIDIATISHHEMDLTPALSKLYGYVLSEQTIEPSGLAHVVLPQRIFSDLSLEYGDEDALVPLPGNLTTVKVWLFFIETPQGQYRVHFRSKAINVNAVAKAFNGGGHPLASGAFVPDLATVGQVIEQMQAQVLAATAVDLEHHHHHH | failed
3 | MDFKSSDAIRGPRTEDHLPHTAQAAVKIVIVGGFGVGKTTMVGSVSEIRPLTTEETMTQMGIGVDDNYGSESKTATTVAMDFGRISITEQLVLYLFGTPGQERFWFLWNGLFEGALGAVVLIDTRRLEVSFDVIGRLEERGVPFVIAVNDFPDAPRYPVEDLRGALDLTEDIPIVKCDARRRASSREVLMTLMHFLHSLAVSKTSVLEHHHHHH | failed
4 | LRGMLPGSKLCEKKIVLSPSANMAAELKSEGKLFMLKRLRLADLEPMAIETSLLPINRFPSLENRNFENESLYEILEEEYNIKMTKAQQKIEVRMPTPQESELLDINYTIPVFHFKQVTFDQNDTIFEVAHSVYRGDRYEIETEIYR | failed
5 | MILLVPILIITLMYFMFENVPHRPGTPSGFNTACLVLLGLFPLFVMFVITAITMQRERASGTLERILTTPLRRLDLLAGYGTAFSIAAAAQATLACIVAFWFLGFDTAGSPVWVFAIAIVNAVLGVGLGLLCSAFARTEFQAVQFIPLVMVPQLLLAGIIVPRALMPTWLEWISNVMPASYALEALQQVGAHPELTGIAVRDVVVVLSFAVASLCLAAVTLRRRTS | failed
6 | MSRFHWLWPWRSSTSLRVTTVLRLGADQPAIVAAARASQACTRSPRTTRDAMAMHTNGSVFAGWDGSVIQAQQLQHQLAQRVLLHDEVSATPQLLAGFDVGFEDDGQTTRAAAVLLDAHTLLPLETHVARAPTSMPYVPGLLSFRELPALLQALARLSRTPDLVFIDGQGIAHPRRLGIAAHFGVVTGLPCIGIAKQRLAGSFAEPGPERGDHTPILLGGAQIGWALRSKPRCNPLIVSPGHCVSMQGALGWTLRTLRSYRLPEPTRLADRLASRRGKMPALAADTPLLF | failed
7 | RTKDQYYELRDFALGTSVRIVVSSQKINPRTIAEAILEDMKRITYKFSFTDERSVVKKINDHPNEWVEVDEETYSLIKAACAFAELTDGAFDPTVGRLLELWGFTGNYENLRVPSREEIEEALKHTGYKNVLFDDKNMRVMVKNGVKIDLGGIAKGYALDRARQIALSFDENATGFVEAGGDVRIIGPKFGKYPWVIGVKDPRGDDVIDYIYLKSGAVATSGDYERYFVVDGVRYHHILDPSTGYPARGVWSVTIIAEDATTADALSTAGFVMAGKDWRKVVLDFPNMGAHLLIVLEGGAIERSETFKLFERE | not failed
8 | KHLSLTPELYKYLLDISLREHPALAALRKETSTMELANMQVAPEQAQFMQMLIRLTRAKKVLELGTFTGYSALAMSLALPDDGQVITCDINEGWTKHAHPYWREAKQEHKIKLRLGPALDTLHSLLNEGGEHQFDFIFIDADKTNYLNYYELALKLVTPKGLIAIDNIFWDGKVIDPNDTSGQTREIKKLNQVIKNDSRVFVSLLAIADGMFLVQPI | not failed
9 | MNELPIILLSPLIGGALAWLIRVKGIREAIGVVSSAIPLYFLIKLYPALEGEPIRYSLNVGGFELTLALSHISWIFAMIAAVVGLSAVLGLVSTAKDSNEWLFALMSLAGALGVFLANDFVVFFLSWEIMTFASFMMVFKYNRHASLKYFVLSIAGAYAMLLAIGIIYAKTGSLSFPEISAIFRQDAMMGMMGGGGVFTKTETLLIYALFLVAFGVKAGMFPLHVWAPDAYSETNQSYTAMFSGVLSKTGVYGFFLLYLLMYGKLAITLGNVRSAPTFGYIIAFLGGLTIMVGGILAALQEDIRKLFAYSSISQIGYILIGLGIGTPLGIAAATYHAISHALFKGLFFLIVATIIYRTGKTEFKDYGGLAEKMPITFAMAFVAILSLAGIPPMAGFASKWLIFEAVISRNLPILGAMVFFGSAIGFVYLIRFTYAVWFGQRPSDLEDVKDAPLPLAIGMGILAILNVIFGVAPGLVARELNKLFSNPPIGGTIWELDLGFGRYNGLLLSIWLVIGLIIAAILYFMGAGVRKVPVTDTYQSGNPVTMEYNLTIRRNFFLPLKEAMAFWLKMSFDRLYHDIWKAIEELADLARSYVYNGNIQAYAWYLAIILLILVAMGV | failed
10 | MKLGVNLCFAVKRWLEPDRLAGLVRDDLGLEYVQYTYDLTDPWWPDIERDRRAIAYAKAFRKAGLTIESTFGGLASYTYNHFLAPTLELQSLGYQHLKRAIDMTAAMEVPATGMPFGSYSAADALNPARREEIYAIARDMWIELAAYAKRQGLSMLYVEPVPLATEFPSSAADAARLMADLDGRTEIPVRLLVDWGHALFEPLFGPEADMDHWMDLCQPWIAAYHIQQTDGQLDRHWSFTQPGVVTPQRLQDFWDKYALTDQTFFAEILYPFEARDEDVLADMIASVKALKAASPAA | not failed
11 | MSRLEGKIAIVTGASSGIGRAAAALCTRGGKGRRYRPQRECTCGAYTRSPEGAVRRQRLPATWATKPCEALVELAVRRFGGLDTAFNNAGARCDGRDLVARRRLARDARYQSDAPSWRRNIRFRQLRHWAAVRSPTSSFVGHTAGFAGVAPYAASKAGDRTGAGAGGRTRRARHSRERAAAAAPTRLPISRTCRERRPRRAVSEGLHALKRIARPEEIAEAALYLAGRCLRDRRCAAGRRRRFGDEGV | not failed
12 | MFISCIILINYSYIFGKNIRYLYEFKVIWKSNNSLILFFIEFDRNFMTIKFKLFKCRRLNILIELINIENYFRNGNILCFIFNIPSIPRNLLINVFLTSSNKVNISIQGLKLEHHHHHH | failed
13 | LSPQVRTAHIGDVPVLVRLMSEFYQEAGFALPHDAAIRAFKALLGKPDLGRIWLIAEGTESVGYIVLTLGFSMEYGGLRGFVDDFFVRPNARGKGLGAAALQTVKQGCCDLGVRALLVETGPEDHPARGVYSRAGFEESGRMLLGQALAPPIHEA | not failed
14 | MVKSFPKGKHRQRIRLWLGSLVLAALLVGGGLFSWYHWRSPSLKPLYTLTVEAPPQTLPELEQWAQSADLLKRDRARYLLAVESLSQRQPQVALQWLQNLEQTYRPMAAPILLLRAEAYRQQGDSRRAQETWEQLLRDYGSEPEAAIALLSLNQPQRAIARFPQHPAVVHYVAQQLEKNPDQVPYLKLVARYGLFLQGYGTYLEILRQRYADQLTPADWEAIAFGYWEKMQYAPAAEAYAKARPTPLNLYRVGRGRQLSGERTGAIAAYQALIQRFPNSSEAALAQLRLARLAKTAAERLPLLAKCLQLATENQAPAIAADALLEQYQAYRELGNTKGAQQSQQQLFKTYPQSSAAAELRWQLAQGAAQKRQWSQAQQWVREILKFNPESELAARAAFWQGKWQGEAGQPQAQRQTWQLVTERYPHTYYAWRAASLLQKPVGTFTTLRQQRPSVAGDRQPLLPLATGSPTLQELYLLRQFQEAWQRWQWEFQNRVTPTAAEQLTDGLIRLGVGEYLDGIFMLQNLFTRAAREPQVATFFAPIRRDLRFWYALYPLPYWELVKKWSLAHNLNPLLVMALIRQESRFEKDIRSVVGATGLMQLMPETAAWIAQQLNLEDYSLVDPEHNIRLGTWYFDYTHNQYNQNTLLALASYNAGPGNVSQWLERFDIGDSDRFVESIPFPETYGYVKSVLENYWNYWQLYAQP | failed
